Laboratory results published in patent US20230391876A1 (HANALL BIOPHARMA, published 2023).

Tests used:
[1] = target: T1, shFcRn (soluble human FcRn) (human, UniProt P55899 24-297; P61769 21-119); experiment: SPR, hFcRn immobilized on chip, pH 7.4
T1 construct: extracellular domain; Printed only as 'soluble human FcRn'; also called hFcRn (immobilized on a chip)
Method: (§1) Kinetic analysis was performed using a 1:1 Langmuir binding model, and the average KD value was obtained by repeating the analysis 6 times in each condition of pH 6.0 and pH 7.4.
(§2) Chip activation was performed under EDAC/NHS 0.5×, 30 μL/min, and 300 sec conditions. Thereafter, shFcRn was prepared at 2 μg/mL, 250 μL using an acetate buffer (pH 5.5), and immobilization was performed while flowing at 30 μL/min. The reaction was stopped when the immobilization level corresponded to 200 RU to 300 RU. Thereafter, deactivation was performed using ethanolamine at 30 μL/min, 300 sec. […] Sample dilution was performed using 1×PBST (pH 7.4) or 1×PBST (pH 6.0) buffer depending on the analysis pH. In the sample analysis conditions, association was carried out by reaction at 50 μL/min, 200 sec, and dissociation was carried out by reaction at 50 μL/min, 600 sec. Thereafter, reaction was carried out using a glycine buffer (pH 2.0) at 100 μL/min, 18 sec to perform regeneration. For kinetic analysis, samples were prepared and reacted once in three cells to which shFcRn was immobilized. Then three kinetic values were obtained, and then an average KD value was measured. When analyzing reaction signals, interspot-referencing and signals in which only buffer was analyzed were used for a double-referencing.

[2] = target: T2, hFcRn on hFcRn-expressing HEK293 cells (human, UniProt P55899 24-365; P61769 21-119); experiment: FACS on hFcRn HEK293 cells, 10 nM antibody, pH 7.4, high concentration sample
T2 construct: whole, on cells; also called hFcRn HEK293
Method: (§3) The analysis of hFcRn binding using FACS was carried out under two conditions of pH 6.0 and pH 7.4. hFcRn-expressing 1TEK293 (hFcRn HEK293) cells were diluted with the reaction buffer (0.0500 BSA in PBS, pH 6.0 or pH 7.4) and prepared in duplicate in a 96 well plate at 1×10⁵ cells for each sample. In addition, each antibody sample was diluted with the reaction buffer to 10 nM, and then put into a 96 well plate, and incubated at 4° C. for 90 minutes. Thereafter, the plate was centrifuged to remove the supernatant, and then Alexa488-goat anti-hIgG Ab (1:200) was added thereto, and again incubated at 4° C. for 90 minutes. After the reaction was completed, it was centrifuged to remove the supernatant, and 200 μL of the reaction buffer was added to resuspend the cell pellet, and then the MFI value was measured in a FACS instrument.

[3] = target: T2, hFcRn on hFcRn-expressing HEK293 cells; experiment: FACS on hFcRn HEK293 cells, 10 nM antibody, pH 6.0
Method: as §3

[4] = target: T2, hFcRn on hFcRn-expressing HEK293 cells; experiment: FACS on hFcRn HEK293 cells, 10 nM antibody, pH 6.0, high concentration sample
Method: as §3

[5] = target: T2, hFcRn on hFcRn-expressing HEK293 cells; experiment: FACS on hFcRn HEK293 cells, 10 nM antibody, pH 7.4
Method: as §3

[6] = target: T1, shFcRn (soluble human FcRn); experiment: SPR, shFcRn immobilized on chip, antibody as analyte, pH 7.4;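 also: kinetics fitted with a 1:1 Langmuir model, association 200 s and dissociation 600 s in PBST, double-referenced against buffer-only and interspot signals, values averaged over repeated runs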
Method: as §1, §2

[7] = target: T2, hFcRn on hFcRn-expressing HEK293 cells; experiment: FACS on hFcRn HEK293 cells, pH 6.0; head prints 'FACS binding (EC50, nM)', taken as blocking of competitor Alexa488-hIgG1 (Example 4.5)
Method: (§4) 1×10⁷ hFcRn HEK293 cells were seeded into a T75 flask and cultured for 24 hours. After culturing, the cells were removed and placed in a 96 well plate at 1×10⁵ cells for each sample in duplicate. […] After the reaction was completed, it was centrifuged to remove the supernatant. 200 μL of the reaction buffer was added to resuspend the cell pellet, and then the MFI value was measured in a FACS instrument.

[8] = target: T1, shFcRn (soluble human FcRn); experiment: SPR, shFcRn immobilized on chip, antibody as analyte, pH 6.0;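 also: kinetics fitted with a 1:1 Langmuir model, association 200 s and dissociation 600 s, samples diluted in PBST, double-referenced signals, values averaged across three shFcRn-coated cells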
Method: as §1, §2

[9] = target: T1, shFcRn (soluble human FcRn); experiment: SPR, hFcRn immobilized on chip, pH 6.0
Method: as §1, §2

[10] = target: T2, hFcRn on hFcRn-expressing HEK293 cells; experiment: FACS on hFcRn HEK293 cells, pH 6.0, high concentration sample; head prints 'FACS binding (EC50, nM)', taken as blocking of competitor Alexa488-hIgG1 (Example 5.5)
Method: as §4
The evaluation of hFcRn blocking was performed at 0.1 nM, 1 nM, 10 nM, and 100 nM using FACS.

Binder	Kd [1] [nM]	MFI [2] [MFI]	MFI [3] [MFI]	MFI [4] [MFI]	MFI [5] [MFI]	Kd [6] [nM]	koff [6] [s⁻¹]	kon [6] [M⁻¹ s⁻¹]	EC50 [7] [nM]	Kd [8] [nM]	koff [8] [s⁻¹]	kon [8] [M⁻¹ s⁻¹]	Kd [9] [nM]	EC50 [10] [nM]
HL161AN variant No. 11 (LC:N25S, HC:C32Y Q82E) (antibody, V domains shown, also called HL161ANSYE; copies: 2 + 2) VL: SYVLTQPPSVSVAPGQTARITCGGSNIGSTSVHWYQQKPGQAPVLVVHDDSDRPSGIPERFSGSNSGNTATLTISRVEAGDEADYYCQVRDSSSDHVIFGGGTKLTVLGQPKAAPSVTL VH: not shown	0.28	6570	2580	3450	6320	0.262	0.000487	1.86e+06	1.36	0.19	0.000486	2.56e+06	0.14	0.62
HL161AN variant No. 13 (LC:N25Q, HC:C32Y) (antibody, V domains shown, also called HL161ANQY; copies: 2 + 2) VL: SYVLTQPPSVSVAPGQTARITCGGQNIGSTSVHWYQQKPGQAPVLVVHDDSDRPSGIPERFSGSNSGNTATLTISRVEAGDEADYYCQVRDSSSDHVIFGGGTKLTVLGQPKAAPSVTL VH: not shown	0.32	7940	2600	3330	6730	0.236	0.000444	1.88e+06	1.38	0.2	0.000556	2.77e+06	0.21	0.66
HL161AN variant No. 22 (LC:N25Q, HC:C32Y Q82E) (antibody, V domains shown, also called HL161ANQYE; copies: 2 + 2) VL: SYVLTQPPSVSVAPGQTARITCGGQNIGSTSVHWYQQKPGQAPVLVVHDDSDRPSGIPERFSGSNSGNTATLTISRVEAGDEADYYCQVRDSSSDHVIFGGGTKLTVLGQPKAAPSVTL VH: not shown	0.3	7080	2390	3020	5860	0.381	0.000647	1.7e+06	1.3	0.264	0.000522	1.98e+06	0.21	0.71

Continued, values first:

Kd [1] [nM]	MFI [2] [MFI]	MFI [3] [MFI]	MFI [4] [MFI]	MFI [5] [MFI]	Kd [6] [nM]	koff [6] [s⁻¹]	kon [6] [M⁻¹ s⁻¹]	EC50 [7] [nM]	Kd [8] [nM]	koff [8] [s⁻¹]	kon [8] [M⁻¹ s⁻¹]	Kd [9] [nM]	EC50 [10] [nM]	Binder
0.28	7060	2830	3130	6760	0.218	0.000496	2.27e+06	1.47	0.158	0.000477	3.02e+06	0.14	0.6	HL161AN variant No. 8 (LC:N25S, HC:C32S Q82E) (antibody, V domains shown, also called HL161ANSE; copies: 2 + 2) VL: SYVLTQPPSVSVAPGQTARITCGGSNIGSTSVHWYQQKPGQAPVLVVHDDSDRPSGIPERFSGSNSGNTATLTISRVEAGDEADYYCQVRDSSSDHVIFGGGTKLTVLGQPKAAPSVTL VH: not shown
0.2	7000	2500	3410	6200	0.207	0.000435	2.1e+06	1.27	0.149	0.000433	2.91e+06	0.1	0.54	HL161AN variant No. 2 (LC:N25S, HC:C32Y) (antibody, V domains shown, also called HL161ANSY; copies: 2 + 2) VL: SYVLTQPPSVSVAPGQTARITCGGSNIGSTSVHWYQQKPGQAPVLVVHDDSDRPSGIPERFSGSNSGNTATLTISRVEAGDEADYYCQVRDSSSDHVIFGGGTKLTVLGQPKAAPSVTL VH: not shown
